The Kd is the constant that tells how readily two partners part at equilibrium.

The target of test [1] is T1, recombinant human FcγRI from R&D Systems (Cat#1257-FC-050) (human, UniProt P12314 16-292).
T1 construct: extracellular domain; Bought reagent; also called CD64
Briefly: ELISA, recombinant human FcγRI. (In general: An ELISA detects its analyte on a solid surface through an enzyme-linked reagent.)

The target in the next test is T2, FcγRI.
T2 construct: also called FcgRI; CD64
Briefly: surface plasmon resonance; FcγRI immobilized (1000 µRIU), CRP injected at 42, 84, 169 and 338 nM. On the procedure: FcγRI (1000 μRIU) were immobilized CRP was injected @ 42 nM, 84 nM, 169 nM and 338 nM. Data are recorded as resonance units over time after injection.
For orientation: In SPR one partner is held on a chip, and binding of the other changes the refractive index at the surface.

T2 sequence (P12314 16-292): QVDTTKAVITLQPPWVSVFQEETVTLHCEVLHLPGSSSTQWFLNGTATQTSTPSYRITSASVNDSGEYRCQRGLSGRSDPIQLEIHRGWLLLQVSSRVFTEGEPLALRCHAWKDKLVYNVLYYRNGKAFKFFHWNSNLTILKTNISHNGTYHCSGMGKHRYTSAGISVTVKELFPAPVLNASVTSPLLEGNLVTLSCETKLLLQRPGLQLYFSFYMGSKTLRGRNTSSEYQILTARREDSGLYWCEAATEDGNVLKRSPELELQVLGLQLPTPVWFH
T1 sequence (P12314 16-292): as above

B1: C-reactive protein (CRP) (ligand)
chain: QTDMSRKAFVFPKESDTSYVSLKAPLTKPLKAFTVCLHFYTELSSTRGYSIFSYATKRQDNEILIFWSKDIGYSFTVGGSEILFEVPEVTVAPVHICTSWESASGIVEFWVDGKPRVRKSLKKGYTVGAEASIILGQEQDSFGGNFEGSQSLVGDIGNVNMWDFVLSPDEINTIYLGGPFSPNVLNWRALKYEVQGEVFTKPQLWP
notes: also called human CRP
With B1, the binding result in test [1] was “binds”. In the test with FcγRI, the dissociation constant (Kd) was determined as 183 nM.

These data come from patent US20090298759A1 (published 2009).
